According to PMC5392361 (Nature chemical biology, 2017):
Where a chain is given by its changes, count along the chain named. Values belong to the binder of their own block, whether it stands above or below them.

Legend:
[1] = target: T1, Sulfolobus solfataricus Rrp41-Rrp42 exosome core (Sulfolobus solfataricus, UniProt Q9UXC2 1-248; Q9UXC0 1-275); assay: pull-down
T1 sequence 1: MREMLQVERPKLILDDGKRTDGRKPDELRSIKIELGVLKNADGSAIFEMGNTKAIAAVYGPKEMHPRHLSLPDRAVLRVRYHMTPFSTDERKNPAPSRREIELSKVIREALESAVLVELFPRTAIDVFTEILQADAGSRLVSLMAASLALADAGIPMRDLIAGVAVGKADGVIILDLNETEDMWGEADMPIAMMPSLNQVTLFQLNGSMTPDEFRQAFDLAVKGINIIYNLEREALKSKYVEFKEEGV
T1 sequence 2: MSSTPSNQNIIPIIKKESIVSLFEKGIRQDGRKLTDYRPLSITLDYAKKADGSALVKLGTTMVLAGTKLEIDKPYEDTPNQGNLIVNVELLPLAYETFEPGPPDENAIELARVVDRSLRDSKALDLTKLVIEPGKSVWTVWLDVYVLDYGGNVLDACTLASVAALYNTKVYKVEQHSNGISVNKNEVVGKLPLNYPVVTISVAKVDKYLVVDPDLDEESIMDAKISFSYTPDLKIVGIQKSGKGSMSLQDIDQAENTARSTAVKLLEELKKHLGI

[2] = target: T2, Rrp4-exosome, Rrp4 KNK170ENQ (Sulfolobus solfataricus, UniProt Q9UXC4;Q9UXC2;Q9UXC0 1-249;1-248;1-275, M1S;M3S;K170E;K172Q); assay: NMR line-shape titration
T2 sequence 1: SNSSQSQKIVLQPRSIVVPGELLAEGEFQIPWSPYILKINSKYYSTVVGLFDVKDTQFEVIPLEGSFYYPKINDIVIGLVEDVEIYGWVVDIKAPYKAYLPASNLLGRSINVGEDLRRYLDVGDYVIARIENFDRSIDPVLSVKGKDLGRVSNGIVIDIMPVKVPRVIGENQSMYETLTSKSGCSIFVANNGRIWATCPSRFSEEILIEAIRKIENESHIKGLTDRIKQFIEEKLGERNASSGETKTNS
T2 sequence 2: T1 sequence 1
T2 sequence 3: T1 sequence 2

[3] = target: T3, Rrp4-exosome, Rrp4 3MS N171M (Sulfolobus solfataricus, UniProt Q9UXC4;Q9UXC2;Q9UXC0 1-249;1-248;1-275, M1S;M3S;N171M); assay: NMR methyl TROSY CSP
T3 sequence 1: T2 sequence 1 with E170K, N171M, Q172K
T3 sequence 2: T1 sequence 1
T3 sequence 3: T1 sequence 2

[4] = target: T4, Rrp4-exosome, Rrp4 3MS K38M (Sulfolobus solfataricus, UniProt Q9UXC4;Q9UXC2;Q9UXC0 1-249;1-248;1-275, M1S;M3S;K38M); assay: NMR methyl TROSY CSP
T4 sequence 1: T2 sequence 1 with K38M, E170K, Q172K
T4 sequence 2: T1 sequence 1
T4 sequence 3: T1 sequence 2

[5] = target: T5, Rrp4-exosome WT (Sulfolobus solfataricus, UniProt Q9UXC4;Q9UXC2;Q9UXC0 1-249;1-248;1-275); assay: fluorescence anisotropy
T5 sequence 1: T2 sequence 1 with S1M, S3M, E170K, Q172K
T5 sequence 2: T1 sequence 1
T5 sequence 3: T1 sequence 2

binding result [1]: binds
B1: Sulfolobus solfataricus Rrp4 exosome cap protein (natural protein, UniProt Q9UXC4 1-249, looked up)
chain: T2 sequence 1 with S1M, S3M, E170K, Q172K

B2: NMR substrate RNA (hairpin-A32, cyclic phosphate) (structured_RNA)
RNA: GCCCCCCCCGAAAGGGGGGGGAAAAAAAAAAAAAAAAAAAAAAAAAAAAAAAA
modifications: 2'-3' cyclic phosphate at 3' end
Kd [2]: 60.5 ± 4.6 µM | binding result [3]: binds | binding result [4]: binds

B3: long RNA (4-thio-U, fluorescein) (structured_RNA)
RNA: GCCCCCCCCGAAAGGGGGGGGAAAAAAAAAAAAAAAAAAAAAUAAAAAAAAAAAGCU
modifications: 4-thiouridine at the single U within the A tail (written U)
Kd [5]: 0.0675 ± 0.0227 µM
